Laboratory results: patent US20240262878A1, “PHOTOACTIVATABLE GASDERMIN PROTEINS” (THE BOARD OF TRUSTEES OF THE UNIVERSITY OF ILLINOIS, priority 2021, published 2024)
Substitutions are numbered along the chain they refer to. In names and notes the source's numbering stands. Entries after “also recorded” stand apart in the source; their conditions may differ.

B1: m3: PhoDer mutant R42Q/K43Q (SEQ ID NO:36) (protein)
chain: MGSAFERVVRRVVQELDHGGEFIPVTSLQSSTGFQPYCLVVQQPSSSWFWKPRYKCVNLSIKDILEPDAAEPDVQRGRSFHFYDAMDGQIQGSVELAAPGQAKIAGGAAVSDSSSTSMNVYSLSVDPNTWQTLLHERHLRQPEHKVLQQLRSRGDNVYVVTEVLQTQKEVEVTRTHKREGSGRFSLPGATCLQGEGQGHLSQKKTVTIPSGSTLAFRVAQLVIDSDLDVLLFPDKKQRTFQPPATGHKRSTSEGAWPQLPSGLSMMRCLHNGGGSVIPDYFKQSFPEGYSWERSMTYEDGGICIATNDITMEGDSFINKIHFKGTNFPPNGPVMQKRTVGWEASTEKMYERDGVLKGDVKMKLLLKGGGHYRCDYRTTYKVKQKPVKLPDYHFVDHRIEILSHDKDYNKVKLYEHAVARNSTDSMDELYKGGSGGMVSKGEETITSVIKPDMKNKLRMEGNVNGHAFVIEGEGSGKPFEGIQTIDLEVKEGAPLPFAYDILTTAFHYGNRVFTKYPRGGGVPAEGAFTEDFQGLRAEVETISKELELLDRELCQLLLEGLEGVLRDQLALRALEEALEQGQSLGPVEPLDGPAGAVLECLVLSSGMLVPELAIPVVYLLGALTMLSETQHKLLAEALESQTLLGPLELVGSLLEQSAPWQERSTMSLPPGLLGNSWGEGAPAWVLLDECGLELGEDTPHVCWEPQAQGRMCALYASLALLSGLSQEPH
B2: m5: PhoDer mutant R42Q/K43Q/K51Q/R53Q/K55Q (SEQ ID NO:38) (protein)
chain: B1 chain with K51Q, R53Q, K55Q
B3: m6: PhoDer mutant R42E/K43E/K51E/R53E/K55E (SEQ ID NO: 39) (protein)
chain: B1 chain with Q42E, Q43E, K51E, R53E, K55E
B4: m4: PhoDer mutant R42E/K43E (SEQ ID NO:37) (protein)
chain: B1 chain with Q42E, Q43E
B5: R7E/R10E/R11E: mutant at the well-conserved N-terminal region of GSDMD (protein, UniProt P57764 1-484, looked up, variant R7E R10E R11E)
Gasdermin-D: MGSAFEEVVEEVVQELDHGGEFIPVTSLQSSTGFQPYCLVVRKPSSSWFWKPRYKCVNLSIKDILEPDAAEPDVQRGRSFHFYDAMDGQIQGSVELAAPGQAKIAGGAAVSDSSSTSMNVYSLSVDPNTWQTLLHERHLRQPEHKVLQQLRSRGDNVYVVTEVLQTQKEVEVTRTHKREGSGRFSLPGATCLQGEGQGHLSQKKTVTIPSGSTLAFRVAQLVIDSDLDVLLFPDKKQRTFQPPATGHKRSTSEGAWPQLPSGLSMMRCLHNFLTDGVPAEGAFTEDFQGLRAEVETISKELELLDRELCQLLLEGLEGVLRDQLALRALEEALEQGQSLGPVEPLDGPAGAVLECLVLSSGMLVPELAIPVVYLLGALTMLSETQHKLLAEALESQTLLGPLELVGSLLEQSAPWQERSTMSLPPGLLGNSWGEGAPAWVLLDECGLELGEDTPHVCWEPQAQGRMCALYASLALLSGLSQEPH
B6: R137E: mutant at another helical region of GSDMD N-terminal domain (protein, UniProt P57764 1-484, looked up, variant R137E)
Gasdermin-D: B5 Gasdermin-D with E7R, E10R, E11R, R137E
B7: R151E/R153E: mutant at another helical region of GSDMD N-terminal domain (protein, UniProt P57764 1-484, looked up, variant R151E R153E)
Gasdermin-D: B5 Gasdermin-D with E7R, E10R, E11R, R151E, R153E

System: Hela cells
Test: Optogenetic activation of PhoDer, membrane-targeted jRCaMP1b calcium flare imaging and fluctuation analysis
Assay type: cell-based
Settings: PhoDer mutants in live Hela cells vs PhoDer
Description: Cloning. Cloning and subcloning were performed using the DH5a strain of E. coli. All mammalian constructs were cloned into the pcDNA3.0 vector with a modified multiple cloning site. Plasmids were generated as follows. Gasdermin D gene was obtained from Addgene. A diffusible optogenetic GSDMD, referred to herein as “PhoDer” and set forth in SEQ ID NO: 33, was constructed according to the reported domains structure by ligating three fragments into the pcDNA3.0 vector in one reaction via Gibson Assembly (New England BioLabs). For each fragment, PCR was specifically designed to create appropriate complementation. The jRCaMP1b gene, encoding a sensitive red protein calcium indicator, was obtained from Addgene. Membrane targeted calcium indicator jRCaMP1b was constructed by ligating a PCR fragment of the calcium indicator into the restriction enzyme sites BamHI and EcoRI in a modified pcDNA3.0 vector carrying a 5′ fragment encoding the N-terminal Lyn kinase localization sequence.
Cell Culture. HeLa and RAW264.7 cells were maintained in Dulbecco's Modified Eagle Medium (DMEM) medium supplemented with 10% fetal bovine serum (FBS) and 1% penicillin and streptomycin. Cells were transfected at 50%-70% confluency using LIPOFECTAMINE® 2000 transfection reagent and incubated for 24 hours before imaging. Cells were never serum-starved. To examine endogenous inflammatory activation, RAW264.7 cells were treated with 100 ng/μL lipopolysaccharide (LPS, Invivogen) at the beginning of each experiment. Pretreatment to bias membrane composition by phosphatidylinositol 4,5-bisphosphate (PIP2) modifying enzymes was performed by incubating Hela cells in Hanks' Balanced Salt Solution (HBSS) buffer with inhibitors at 37° C. for 10 minutes to prior imaging at the following concentrations: for phosphoinositide 3-kinase (PI3K), cells were treated 10 μM wortmannin (Tocris); and for phospholipase C (PLC), cells were treated with 10 μM U73122 (Tocris). Cells were removed from the incubator and allowed to come to thermal equilibrium before being imaged in HBSS buffer at room temperature.
Fluorescence Imaging, Optogenetic Activation, and Post-Processing. All epifluorescence imaging was performed on a customized Nikon Ti2-E microscope equipped with individual control over excitation (EX) and emission (EM) filters, a fast LED light source (Lumencor) with fluid-cooled EMCCD (Andor), motorized stage, and examined under a 40× or 100× oil immersion objective under live focus tracking. For RFP, excitation (EX) and emission (EM) filter combinations (maxima/bandwidth in nm) are indicated. Cells were imaged at 12-15 second intervals. Emission intensities of individual cells were background-subtracted before normalization to zero time point, when optogenetic activation began. In the optical setup, optogenetic activation of PhoDer was performed using an EX filter at 440/20 nm for 20-30 ms across whole fields of view. This replicated the progression of endogenous activation of GSDMD observed in LPS-stimulated RAW264.7 cells. […] Where applicable, inhibitors were treated at the indicated concentration for 15 minutes prior to imaging.
Fluctuation Analysis and Quantification. To automate the objective isolation and quantitation of calcium flares, a post-processing algorithm was developed based on principles and normalization scheme detailed in work on photochromic stochastic optical fluctuation imaging (pcSOFI) (Dedecker et al. (2012) Proc. Natl. Acad. Sci. USA 109: 10909-10914). Briefly, fluctuation caused by the flares generate high autocorrelation signals in time-averaged series and yield high contrast at locales of the greatest ion flux. To truly reflect the local flux change, it is then normalized to remove dependence on the number of biosensors reporting at the given location using a scheme detailed previously (Mo et al. (2017) Nat. Methods 14 (4): 427-434). […]

Row | Molecule | pore opening/closing dynamics (automated flare quantification)
1 | B1 | significantly reduced pore opening/closing dynamics; also recorded: significant changes in pore activity
2 | B2 | significantly reduced pore opening/closing dynamics; also recorded: significant changes in pore activity
3 | B3 | significantly reduced pore opening/closing dynamics
4 | B4 | significantly reduced pore opening/closing dynamics

Same assay, conditions: charge-altering mutations

Row | Molecule | calcium response of mutants at other putative lipid-binding sites
5 | B5 | much-reduced calcium magnitude
6 | B6 | either encumbering or abrogating the calcium response
7 | B7 | either encumbering or abrogating the calcium response
